The values below come from patent US20140170162A1, “PRESERVATION OF THE NEUROMUSCULAR JUNCTION (NMJ) AFTER TRAUMATIC NERVE INJURY” (The Regents of the University of California, priority 2012, published 2014).

The target in series [1] is His-labeled rat recombinant agrin (R&D Systems) (UniProt P25304).
Series [2] concerns C212 myotubes. Kind of series: In vitro assessment of AChR clustering in myotubes. The series is classed as cell-based. To be noted: FIG. 3A, B. As for the experimental part: C212 cells were purchased from ATCC (Manassas, Va.). Cells were expanded and differentiated into myotubes as previously described. Five days following differentiation, myotubes were then treated overnight with […] His-labeled rat recombinant agrin (R&D Systems, Minneapolis, Minn.) or […] rat recombinant agrin incubated with […] MMP3 active subunit (Millipore, Billerica, Mass.) for 72 hours. Western blot was performed to confirm cleavage of agrin. After treatment of myotubes with Alexa 555-conjugated a-bungarotoxin (a-BTX; Invitrogen, Carlsbad, Calif.; 1:1,000), samples were fixed according to standard procedures for immunohistochemistry. Ten random fields at 40 magnification were evaluated by a blinded observer for AChR clustering under fluorescent microscopy as previously described. An AChR cluster was defined as an aggregate of at least 4 lm2. Three samples from each treatment group were analyzed.
Agrin was cleaved by MMP3, resulting in a 60 kDa fragment as detected by silver stain.

Chain of UniProt P25304 (P25304 1153-1959): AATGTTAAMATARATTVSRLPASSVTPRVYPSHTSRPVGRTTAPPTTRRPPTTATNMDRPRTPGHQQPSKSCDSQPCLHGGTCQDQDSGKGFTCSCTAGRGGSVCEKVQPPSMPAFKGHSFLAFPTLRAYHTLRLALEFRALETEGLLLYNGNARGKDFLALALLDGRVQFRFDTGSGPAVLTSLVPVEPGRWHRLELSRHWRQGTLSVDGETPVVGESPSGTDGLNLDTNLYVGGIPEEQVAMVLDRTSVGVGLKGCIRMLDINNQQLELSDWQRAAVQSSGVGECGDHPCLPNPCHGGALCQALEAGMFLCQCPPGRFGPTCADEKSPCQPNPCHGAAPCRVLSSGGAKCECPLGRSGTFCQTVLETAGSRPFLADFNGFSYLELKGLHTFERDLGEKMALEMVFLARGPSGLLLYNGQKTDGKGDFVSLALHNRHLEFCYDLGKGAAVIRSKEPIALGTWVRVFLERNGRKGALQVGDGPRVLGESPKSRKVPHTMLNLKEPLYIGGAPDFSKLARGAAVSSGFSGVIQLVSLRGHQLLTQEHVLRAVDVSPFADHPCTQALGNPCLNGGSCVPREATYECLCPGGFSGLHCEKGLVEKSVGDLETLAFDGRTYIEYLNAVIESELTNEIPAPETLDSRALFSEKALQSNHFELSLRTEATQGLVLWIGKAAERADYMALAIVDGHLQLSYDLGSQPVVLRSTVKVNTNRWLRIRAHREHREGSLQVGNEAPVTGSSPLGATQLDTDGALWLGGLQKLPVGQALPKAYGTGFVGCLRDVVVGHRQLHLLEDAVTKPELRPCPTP

Take MMP3 active subunit (Millipore): in series [1], the “AChR clusters/field in C212 myotubes (agrin processed by MMP3, against 7.30 for agrin alone)” value was 7.30 6 0.578 clusters/field vs 2.20 6 0.467 clusters/field; the “cleavage of agrin (silver stain)” value is “Agrin was cleaved by MMP3, resulting in a 60 kDa fragment as detected by silver stain”; the “degradation of 90 kDa agrin after 72 hours” value was “Treatment with MMP3 for 72 hours led to complete degradation of 90 kDa agrin”.
As for “agrin: His-labeled rat recombinant agrin (R&D Systems), approximately 90 kDa”, in series [2], the “AChR clustering (images)” value was “clustering”.
